Measurements published in patent publication US20180028609A1 (UCL BUSINESS, published 2018).

Columns and labels:
[1] = biological target: T1, human Leucine-rich alpha-2-glycoprotein 1 (Lrg1) (human, UniProt P02750 36-347, limits assumed); experiment: competition ELISA on coated hLrg1; competitor biotinylated mouse 15C4 at 0.4 µg/ml
T1 construct: In the western blots the native protein of conditioned medium, vitreous and serum was probed; also called human Lrg1; hLrg1
T1 sequence: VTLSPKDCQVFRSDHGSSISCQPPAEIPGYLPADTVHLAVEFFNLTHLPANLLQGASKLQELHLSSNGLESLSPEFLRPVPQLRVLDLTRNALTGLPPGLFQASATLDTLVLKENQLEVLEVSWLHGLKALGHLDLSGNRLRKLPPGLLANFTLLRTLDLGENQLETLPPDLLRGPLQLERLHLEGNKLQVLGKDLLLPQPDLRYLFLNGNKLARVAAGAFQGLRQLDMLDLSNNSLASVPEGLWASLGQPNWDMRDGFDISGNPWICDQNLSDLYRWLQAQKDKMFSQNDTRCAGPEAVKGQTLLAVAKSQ

[2] = biological target: T1, human Leucine-rich alpha-2-glycoprotein …; experiment: competition ELISA: plate coated with hLrg1, dilution series of the test antibody premixed with biotinylated mouse 15C4 (0.4 µg/ml); bound biotinylated 15C4 detected with streptavidin-HRP and TMB [bottom graph]
Experimental: (§1) The chimeric antibody was expressed transiently in HEK EBNA cells and stably in NS0 mouse myeloma cells, purified and tested for binding to human Lrg1 in a competition ELISA assay. A Nunc Immuno MaxiSorp 96 well flat bottom microtitre plate (Fisher, cat. no. DIS-971-030J) was pre-coated with 0.2 μg/ml hLrg1 (supplied by UCL) overnight in 0.1 N Sodium Carbonate buffer (NaHCO₃) at +4° C. The following day the plate was washed 1× with PBST and blocked with 3% BSA/PBS for 1 hour at room temperature. After washing 3× with PB ST, a three-fold dilution series of chimeric, mouse or control antibodies from 100 μg/ml to 0.13 μg/ml was premixed with a constant concentration of biotinylated mouse 15C4 (0.4 μg/ml, final concentration), added to the plates and incubated for 1.5 hours at room temperature. Following 3×PBST washes, the binding of the biotinylated mAb was detected with streptavidin-HRP (Sigma, cat. no. 55512) and TMB substrate (Invitrogen, cat. no. 00-2023). The reaction was stopped with 3 M HCl, absorbance read at 450 nm on a Dynex Technologies MRX TC II plate reader and the binding curves plotted.

[3] = biological target: T1, human Leucine-rich alpha-2-glycoprotein …; experiment: competition ELISA: plate coated with hLrg1, dilution series of the test antibody premixed with biotinylated mouse 15C4 (0.4 µg/ml); bound biotinylated 15C4 detected with streptavidin-HRP and TMB [top graph]
Experimental: as §1

[4] = biological target: T1, human Leucine-rich alpha-2-glycoprotein …; experiment: Biacore SPR; human Lrg1 immobilised, mAb at 20-100 nM
Experimental: The four lead mAbs were examined using Biacore, in experiments in which human Lrg1 was immobilized on the chip, and mAbs passed across at concentrations ranging from 20-100 nM. The Table below summarises the kinetic data.

[5] = biological target: T2, Lrg1 peptide GNKLQVLGKDLLLPQ (amino acids 221-235 of Lrg1) (human); experiment: ProArray Ultra peptide microarray, fluorescent secondary antibody
T2 construct: Synthetic 15-mer of the overlapping library
T2 peptide: GNKLQVLGKDLLLPQ
Experimental: The determination of peptide-antibody binding was performed by incubation of serum or antibody samples with a ProArray Ultra® peptide microarray, followed by incubation with a fluorescent-labelled secondary antibody.
ProArray Ultra® slides were blocked using a validated blocking buffer to reduce non-specific binding of the sera. They were then incubated with test samples, followed by incubation with a specific fluorescent-labelled secondary antibody. After several washing steps, the ProArray Ultra® arrays were dried and scanned using a high-resolution fluorescence microarray scanning system.
Overlapping peptides representing LRG1 were synthesized and printed onto ProArray Ultra® microarray slides, alongside selected murine IgG controls. Slides were incubated with murine monoclonal antibody samples 4H2, 15C4 and 3A11 to identify putative epitopes. An overlapping peptide library representing Lrg1 was synthesized from the sequence provided by the sponsor. 15-mer synthetic peptides, overlapping by 10 amino acids, were generated.

[6] = biological target: T1, human Leucine-rich alpha-2-glycoprotein …; experiment: competition ELISA: dilution series of the purified antibody against a fixed concentration of biotinylated mouse 15C4 on recombinant hLRG1; bound biotinylated 15C4 detected with streptavidin-peroxidase and TMB [bottom panel]
Excerpt: Top panel-Analytical size exclusion chromatography showing single peak and no aggregates. SDS-PAGE showing reduced (lane 1) and non-reduced (lane 2) antibody. Bottom panel-Anti-hLRG1 competition ELISA. A dilution series of each purified antibody was competed against a fixed concentration of biotinylated mouse 15C4 for binding to recombinant hLRG1. Bound biotinylated mouse 15C4 was detected using streptavidin-peroxidase and TMB substrate.
The properties of Magacizumab were investigated. Analytical size exclusion chromatography was conducted showing a single peak and no aggregates (FIG. 20). An anti-hLrg1 competition ELISA was carried out. A dilution series of each purified antibody was competed against a fixed concentration of biotinylated mouse 15C4 for binding to recombinant hLrg1. Bound biotinylated mouse 15C4 was detected using streptavidin-peroxidase and TMB substrate. This was an analytical step in which several humanised variants were tested against the chimeric 15C4, in order to identify those that retained the best binding characteristics.

| Binder | IC50 fold difference against mouse 15C4 [1] [fold] | IC50 (read off the curve) [2] [µg/mL] | IC50 (read off the curve) [3] [µg/mL] | other results |
| --- | --- | --- | --- | --- |
| chimeric 15C4 antibody (murine 15C4 variable regions with human IgG4 (S241P) heavy chain constant region and Kappa light chain constant region) (antibody, V domains shown, Human IgG4 (S241P) heavy chain constant region and human Kappa light chain constant region; Expressed transiently in HEK EBNA cells and stably in NS0 cells; also called chimeric antibody; VH0/Vk0) VH: QVQLQQSGDEVVRPGSSVKISCKASGYTFSGYWMNWVKQRPGQGLQWIGQIYPGDGDTNYNGKFKGKATLTADKSSSTAYMQLSTLTSEDSAIYFCARSITTVVLDYWGQGTTLTVSS VL: DIVLTQSPVSLAVSLGQRATISCRASQSVSTSGYSFMHWYQQKPGQPPKFLIKYASNLESGVPARFSGSGSGTDFTLNIHPVEEEDTATYYCQHSWEMPLTFGAGTKLELK | ≤ 2 | ~3 | ~6 |  |
| Antibody 15C4 (mouse monoclonal antibody against human Lrg1) (antibody, V domains shown, Murine hybridoma antibody; also called mouse 15C4; mAb 15C4) VH: QVQLQQSGDEVVRPGSSVKISCKASGYTFSGYWMNWVKQRPGQGLQWIGQIYPGDGDTNYNGKFKGKATLTADKSSSTAYMQLSTLTSEDSAIYFCARSITTVVLDYWGQGTTLTVSS VL: DIVLTQSPVSLAVSLGQRATISCRASQSVSTSGYSFMHWYQQKPGQPPKFLIKYASNLESGVPARFSGSGSGTDFTLNIHPVEEEDTATYYCQHSWEMPLTFGAGTKLELK |  | ~3 | ~5 | Kd [4]: 1.27 pM; binding result [5]: binds |
| control antibody VH0/Vk1 (antibody, V domains shown) VH: QVQLQQSGDEVVRPGSSVKISCKASGYTFSGYWMNWVKQRPGQGLQWIGQIYPGDGDTNYNGKFKGKATLTADKSSSTAYMQLSTLTSEDSAIYFCARSITTVVLDYWGQGTTLTVSS VL: DIVLTQSPDSLAVSLGERATISCRASQSVSTSGYSFMHWYQQKPGQPPKFLIKYASNLESGVPARFSGSGSGTDFTLTISSLQEEDFATYYCQHSWEMPLTFGQGTKLEIK | ≤ 2 |  |  |  |
| control antibody VH1/Vk0 (antibody, V domains shown) VH: QVQLVQSGDEVKKPGSSVKVSCKASGYTFSGYWMNWVKQAPGQGLQWIGQIYPGDGDTNYNGKFKGRATITADKSTSTAYMQLSTLTSEDSAIYFCARSITTVVLDYWGQGTTVTVSS VL: DIVLTQSPVSLAVSLGQRATISCRASQSVSTSGYSFMHWYQQKPGQPPKFLIKYASNLESGVPARFSGSGSGTDFTLNIHPVEEEDTATYYCQHSWEMPLTFGAGTKLELK | ≤ 2 |  |  |  |
| Magacizumab (humanised 15C4 antibody comprising heavy chain variable region VH5 and kappa light chain variable region VK3) (antibody, V domains shown, also called VH5/Vk3_3B6 clone; humanised antibody) VH: QVQLVQSGAEVKKPGSSVKVSCKASGYTFSGYWMNWVRQAPGQGLEWIGQIYPGDGDTNYNGKFKGRVTITADKSTSTAYMELSSLRSEDTAVYYCARSITTVVLDYWGQGTTVTVSS VL: DIVLTQSPDSLAVSLGERATISCRASQSVSTSGYSFMHWYQQKPGQPPKLLIKYASNLESGVPARFSGSGSGTDFTLTISSLQPEDFATYYCQHSWEMPLTFGQGTKLEIK |  |  |  | binding result [6]: binds |
